Measurements: US20200247894A1 (Regeneron, published 2020)
One block for each binder: values may come before it.

Tests used:
[1] = target: T1, D1 domain of human IL-2Rγ extracellular domain expressed with a C-terminal myc-myc-hexahistidine tag (human); assay: SPR, mAb captured on anti-hFc, 25 C
T1 construct: also called human IL2Rγ domain 1
T1 chain: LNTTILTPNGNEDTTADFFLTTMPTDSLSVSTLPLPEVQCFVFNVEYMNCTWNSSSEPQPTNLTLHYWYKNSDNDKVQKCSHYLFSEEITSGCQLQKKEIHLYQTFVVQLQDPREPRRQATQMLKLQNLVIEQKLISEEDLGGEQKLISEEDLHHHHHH
Protocol: (§1) Equilibrium dissociation constants (KD values) for IL-2Rγ binding to purified anti-IL2Rγ monoclonal antibodies were determined using a Biacore 4000 instrument equipped with a real-time surface plasmon resonance biosensor. All binding studies were performed in 10 mM HEPES, 150 mM NaCl, 3 mM EDTA, and 0.05% v/v Surfactant Tween-20, pH 7.4 (HBS-ET) running buffer at 25° C. and 37° C. The Biacore sensor surface was first derivatized by amine coupling with a monoclonal mouse anti-human Fc antibody (GE, # BR-1008-39) to capture anti-IL2Rγ monoclonal antibodies.
(§2) The dissociation of monoclonal antibody bound IL2Rγ reagents were monitored for 8-10 minutes in HBS-ET running buffer. Kinetic association (kₐ) and dissociation (kd) rate constants were determined by fitting the real-time sensorgrams to a 1:1 binding model using Scrubber 2.0c curve fitting software. Binding dissociation equilibrium constants (KD) and dissociative half-lives (t_{1/2}) were calculated from the kinetic rate constants as: […]

[2] = target: T1, D1 domain of human IL-2Rγ extracellular …; assay: SPR, mAb captured on anti-hFc, 37 C
Protocol: as §1, §2

[3] = target: T2, D2 domain of human IL2Rγ extracellular domain expressed with a C-terminal myc-myc-hexahistidine tag (human); assay: SPR, mAb captured on anti-hFc, 25 C
T2 construct: also called human IL2Rγ domain 2
T2 chain: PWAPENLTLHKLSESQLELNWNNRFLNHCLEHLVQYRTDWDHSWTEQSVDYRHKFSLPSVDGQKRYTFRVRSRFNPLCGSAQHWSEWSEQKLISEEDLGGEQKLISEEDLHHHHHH
Protocol: as §1

[4] = target: T2, D2 domain of human IL2Rγ extracellular …; assay: SPR, mAb captured on anti-hFc, 37 C
Protocol: as §1

[5] = target: T3, human IL2Rγ (endogenously expressed on cells) (human, UniProt P31785 23-369); assay: cell-based or functional assay
T3 sequence (looked up): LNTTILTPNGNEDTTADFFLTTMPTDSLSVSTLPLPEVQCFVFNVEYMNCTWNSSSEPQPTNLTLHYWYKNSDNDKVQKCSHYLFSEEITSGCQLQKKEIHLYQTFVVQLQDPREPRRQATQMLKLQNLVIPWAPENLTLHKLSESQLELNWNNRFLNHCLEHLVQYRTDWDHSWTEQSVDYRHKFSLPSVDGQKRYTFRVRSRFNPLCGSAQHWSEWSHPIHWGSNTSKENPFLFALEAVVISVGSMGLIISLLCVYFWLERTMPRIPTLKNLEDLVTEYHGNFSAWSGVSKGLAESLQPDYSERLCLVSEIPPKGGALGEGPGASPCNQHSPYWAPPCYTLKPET

B2: H4H12908P (antibody, human IgG4 S228P, kappa, V domains shown)
VH: EVQLVESGGRLVQPGGSLRLSCEASGFTFSNYGMTWVRQAPGKGLEWVSVISGSDNRKYYAESVKGRFTISRDNSKNTLYLQMNSLRAEDTAVYYCAKLGYSRSSKDFYYGMDVWGQGTTVTVSS
VL: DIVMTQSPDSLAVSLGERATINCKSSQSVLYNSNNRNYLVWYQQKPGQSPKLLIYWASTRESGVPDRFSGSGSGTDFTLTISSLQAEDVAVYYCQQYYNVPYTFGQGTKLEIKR
notes: human IgG4
- 100 nM Ag Bound [1]: 1 RU
- binding result [1]: no binding (tested: 100 nM)
- 100 nM Ag Bound [2]: 0 RU
- 100 nM Ag Bound [3]: -1 RU
- 100 nM Ag Bound [4]: -1 RU

B4: H4H12886P (antibody, human IgG4 S228P, kappa, V domains shown)
VH: EVQLVESGGGLVKPGGSLRLSCAASGFTFSTAWMSWVRQSPGRGLEWVGRMKSKTDGGTTFYAAPVKGRFTISRDDSKNTLYLQMNSLKTEDTAVYYCTTGLVPAFYKYYGVDVWGQGTTVTVSS
VL: DIQMTQSPSSLSASVGDRITITCQASQDITNYLNWYQQKPGKAPNLLIYDASNLVTGVPSRFSGSGSGTDFTFTILSLQPEDIATYYCQQYDSLLTFGPGTKVDIKR
notes: human IgG4
- IC50; IL-4 250 pM; Ramos.2G6.4C10/STAT3-luc [5]: > 1e-07 M
- IC50; IL-7 50 pM; NK92/hIL7R/STAT3-luc [5]: > 1e-07 M
- IC50; IL-9 20 pM; NK92/hIL7R/STAT3-luc [5]: > 1e-07 M
- IC50; IL-15 60 pM; NK92/hIL7R/STAT3-luc [5]: > 1e-07 M
- Max Inhibition (%); IL-2 30 pM; NK92/hIL7R/STAT3-luc [5]: 27%
- Max Inhibition (%); IL-4 250 pM; Ramos.2G6.4C10/STAT3-luc [5]: 92%
- Max Inhibition (%); IL-7 50 pM; NK92/hIL7R/STAT3-luc [5]: 81%
- Max Inhibition (%); IL-9 20 pM; NK92/hIL7R/STAT3-luc [5]: 84%
- Max Inhibition (%); IL-15 60 pM; NK92/hIL7R/STAT3-luc [5]: 64%
- Max Inhibition (%); IL-21 5 pM; NK92/hIL7R/STAT3-luc [5]: 18%
- 100 nM Ag Bound [1]: 0 RU
- 100 nM Ag Bound [2]: 0 RU
- binding result [2]: no binding (tested: 100 nM)
- 100 nM Ag Bound [3]: 35 RU
- Kd [3]: 0.535 nM
- koff [3]: 0.000148 s⁻¹
- kon [3]: 276000 M⁻¹ s⁻¹
- t½ [3]: 78 min
- 100 nM Ag Bound [4]: 26 RU
- Kd [4]: 11.4 nM
- koff [4]: 0.000377 s⁻¹
- kon [4]: 33100 M⁻¹ s⁻¹
- t½ [4]: 31 min

B6: H4H12858P (antibody, human IgG4 S228P, kappa, V domains shown)
VH: EVQLVESGGDLVQPGGSLRLSCTASGFIFRNYAMNWVRQAPGKGLEWLSGILGSNDNTYYVDSVKGRFTISRDNSRNTLYLQMNSLRAEDSAVYYCAKGDAGGFDYWGQGTLVTVSS
VL: DVVMTQSPLSLPVILGQPASISCRSSQSLVSSDGNTYLNWFQQRPGQSPRRLIYKVSNRDSGVPDRFSGSGSGTDFTLKISRVEAEDVGAYYCMQGSYWPPTFGQGTKLEIKR
notes: human IgG4; also called REGN9433
- 100 nM Ag Bound [1]: 1 RU
- 100 nM Ag Bound [2]: 1 RU
- binding result [2]: no binding (tested: 100 nM)
- 100 nM Ag Bound [3]: 0 RU
- 100 nM Ag Bound [4]: -1 RU

Other lines, results leading:

- 100 nM Ag Bound [1]: 2 RU
- binding result [1]: no binding (tested: 100 nM)
- 100 nM Ag Bound [2]: 2 RU
- 100 nM Ag Bound [3]: 10 RU
- binding result [3]: no binding (tested: 100 nM)
- 100 nM Ag Bound [4]: 7 RU
B1: H4H13541P (antibody, human IgG4 S228P, kappa, V domains shown)
VH: EVQLVESGGGVVRPGGSLRLSCAASGFIFDDYDMSWVRQPPGRGLEWVSGIDWFGGTRGYADSMKGRFTISRDNAKNSLYLQMNSLRVEDTAFYYCARGGAIVGAVTPFDYWGQGTLVTVSS
VL: DIQMTQSPSSLSASVGNRVTLSCRASQSINTYLSWYQQRPGKAPKLLIYAASSLQSGVPSRFSGSGAGTDFTLTISSLQPEDFATYYCQQSYSAPLTFGGGTKVEIKR
notes: human IgG4

- 100 nM Ag Bound [1]: 8 RU
- binding result [1]: no binding (tested: 100 nM)
- 100 nM Ag Bound [2]: 4 RU
- 100 nM Ag Bound [3]: 5 RU
- binding result [3]: no binding (tested: 100 nM)
- 100 nM Ag Bound [4]: 3 RU
B3: H4H13545P2 (antibody, human IgG4 S228P, kappa, V domains shown)
VH: QVQLQQSGPGLVKPSQTLSLTCDISGDSVSSNIATWNWIRQSPSRGLEWLGRTYYRSKWYKDYAVSVKSRITINPDTSKNQFSLQVNSVTPEDTAVYYCARMTGPRYYFEYWGQGTLVTVSS
VL: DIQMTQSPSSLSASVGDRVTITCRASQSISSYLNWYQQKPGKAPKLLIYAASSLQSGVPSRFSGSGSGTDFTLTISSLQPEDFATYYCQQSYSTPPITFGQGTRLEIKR
notes: human IgG4

- 100 nM Ag Bound [1]: 24 RU
- Kd [1]: 57.8 nM
- koff [1]: 0.00207 s⁻¹
- kon [1]: 35800 M⁻¹ s⁻¹
- t½ [1]: 6 min
- 100 nM Ag Bound [2]: 22 RU
- Kd [2]: 225 nM
- koff [2]: 0.0105 s⁻¹
- kon [2]: 46400 M⁻¹ s⁻¹
- t½ [2]: 1.1 min
- 100 nM Ag Bound [3]: 5 RU
- binding result [3]: no binding (tested: 100 nM)
- 100 nM Ag Bound [4]: 4 RU
B5: H4H13544P2 (antibody, human IgG4 S228P, kappa, V domains shown)
VH: QLQLQESGPGLVKPSETLSLTCTVSGGSISIKNYYWGWIRQPPGKGLEWIGSIYYSGTTYYNPSLKSRVTISVDTSKNQFSLKLSSVTAADTAVYHCARHGYSYGHGWFDPWGQGTLVTVSS
VL: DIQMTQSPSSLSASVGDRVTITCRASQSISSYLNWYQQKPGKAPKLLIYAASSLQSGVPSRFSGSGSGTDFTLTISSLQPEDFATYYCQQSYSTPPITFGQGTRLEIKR
notes: human IgG4
